Laboratory results from PMC12856669 (2026).
Substitutions are numbered along the chain they refer to.

How the values were obtained:
[1] = biological target: NpF2164g6 (1038–1206), holo-protein, not biotinylated
[2] = biological target: T1, NpF2164g6 (1038–1206), holo-protein, not biotinylated (phycocyanobilin (PCB) chromophore bound); assay: dark state (Pr), thermal reversion
T1 chain: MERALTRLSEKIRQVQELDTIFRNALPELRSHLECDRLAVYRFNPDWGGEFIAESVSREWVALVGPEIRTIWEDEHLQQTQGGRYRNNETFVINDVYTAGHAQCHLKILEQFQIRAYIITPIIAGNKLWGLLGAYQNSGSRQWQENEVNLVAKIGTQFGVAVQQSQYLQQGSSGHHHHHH

[3] = biological target: T1, NpF2164g6 (1038–1206), holo-protein, …; assay: Pr-state (dark), from thermal reversion rate
[4] = biological target: Biotinylated NpF2164g6 (1038–1206), Avi-tagged holo-protein; assay: ELISA; purified biotinylated NpF2164g6 immobilised, purified FLAG-tagged binders, dark-adapted (Pr state)
[5] = biological target: Biotinylated NpF2164g6 (1038–1206), Avi-tagged holo-protein; assay: ELISA; purified biotinylated NpF2164g6 immobilised, purified FLAG-tagged binders, red-light conditions (Pg state)
[6] = biological target: NpF2164g6 (1038–1206), holo-protein, not biotinylated; assay: other fluorescence titration; Pr (dark) state fluorescence of NpF2164g6 against binder concentration, 1:1 binding model, gives Kd,D; 25 °C, PBS pH 7.2
[7] = biological target: NpF2164g6 (1038–1206), holo-protein, not biotinylated; assay: thermal reversion kinetics (UV-vis); observed thermal reversion rate of NpF2164g6 against binder concentration, gives Kd,L of the light (Pg) state; 25 °C, PBS pH 7.2
[8] = biological target: T2, NpF2164g6 (1052–1206), N-terminal truncation (phycocyanobilin (PCB) chromophore linked to Cys90 (construct numbering); 15N label for NMR); assay: dark state (Pr), thermal reversion
T2 chain: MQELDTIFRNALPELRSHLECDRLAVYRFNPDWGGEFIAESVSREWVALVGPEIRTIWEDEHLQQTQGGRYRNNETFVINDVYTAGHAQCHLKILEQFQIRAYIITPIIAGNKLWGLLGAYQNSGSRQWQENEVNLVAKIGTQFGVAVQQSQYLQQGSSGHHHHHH

[9] = biological target: T2, NpF2164g6 (1052–1206), N-terminal …; assay: light state (Pg), thermal reversion

Biotinylated NpF2164g6 (1038–1206), Avi-tagged holo-protein, sequence (main, as listed by the source): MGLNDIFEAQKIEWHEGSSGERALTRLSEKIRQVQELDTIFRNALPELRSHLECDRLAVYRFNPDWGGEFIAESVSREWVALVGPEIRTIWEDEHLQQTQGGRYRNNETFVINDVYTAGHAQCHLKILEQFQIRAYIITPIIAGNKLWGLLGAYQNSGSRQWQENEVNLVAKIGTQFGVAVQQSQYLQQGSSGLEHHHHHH

B1: BNp-Red-1.2 (designed binder)
chain: MKLATIDQWLLKNAKEDAIAELKKAGITADAYFNWINNAWDVDYVNYRKNKILKAHAGSSGLEHHHHHH
SEAP reporter activity in stably transfected CHO-K1 cells (NpF2164g6-FUS-VP16-NLS and E-BNp-Red-1.2-NLS), dark against 660 nm illumination for 24 h, bulk cell culture [1]: 24 fold
SEAP reporter activity in stably transfected CHO-K1 cells (NpF2164g6-FUS-VP16-NLS and E-BNp-Red-1.2-NLS), dark against 660 nm illumination for 24 h, individual clones [1]: > 30 fold
Kd [2]: 3.7 µM
Kd [3]: 3.7 µM
Kd [4]: 0.6 µM
Kd [5]: > 100 µM
Kd [6]: 3 µM
Kd [7]: > 30 µM

B2: BNp-Red-1.0 (binder of NpF2164g6-Red state) (designed binder)
chain: B1 chain with A29S, W35L, N38D, W40F
Kd [8]: 7 µM
Kd [2]: 7.9 µM
Kd [9]: > 180 µM
Kd [3]: 7.9 µM
Kd [6]: 7 µM
Kd [7]: > 200 µM
